The values below come from patent US5882644A, “Monoclonal antibodies specific for the platelet derived growth factor β receptor and methods of use thereof” (Protein Design Labs, Inc., priority 1996, dated 1999).

Assay [1] concerns the target T1, PDGF-R β expressed on transfectant cells (CHO PDGF-R β transfectants, CHO C4 line); Sp2/0 PDGF-R β … (human, UniProt P09619). The assay is described as follows: competition with 125I-labeled M4TS.11 on Sp2/0 PDGF-R β transfectant cells. On the procedure: (§1) Figure 11: FIG. 11 is a graph depicting competitive binding of muM4TS.11 (closed squares) and HuM4TS.11 (open squares) and HuM4TS.11(gamma 1) (open diamonds). Increasing concentrations of cold competitor antibodies were incubated with the Sp2/0 transfectants expressing PDGF-R β in the presence of radiolabeled tracer muM4TS.11, and the ratio of bound/free radioactivity determined. The results shown are mean values of triplicate samples.
(§2) To assess the ability of HuM4TS.11 to compete with the muAb for receptor binding, increasing concentrations of the two antibodies were respectively incubated on ice for one hour with Sp2/0 PDGF-R β transfectant cells and a fixed amount of tracer ^125I-labeled M4TS.11. The sample tubes were processed as in the blocking experiment described. HuM4TS.11 competed less well than muM4TS.11 (FIG. 11).

The target in another assay is rat PDGF-R β (rat, UniProt Q05030). As to the kind of experiment: cell-based or functional assay.
Assay [2] concerns the target T1, PDGF-R β expressed on transfectant …. The assay is described as follows: competition with 125I-labeled muM4TS.11 on Sp2/0 PDGF-R β transfectant cells (FIG. 11). As for the experimental part: as §1, §2
(§3) Loss of binding affinity due to the gamma4 isotype has been observed in another antibody (Horgan et al. (1993) J. Immunol. 150:5400), and may be due to structural constraints imposed on the particular antibody by the gamma4 hinge region. See, Horgan et al. (1993).

For assay [3] the target is unchanged. As to the kind of experiment: competition with 125I-labeled muM4TS.11 on Sp2/0 PDGF-R β transfectant cells. As for the experimental part: as §1, §2, §3

B1: muM4TS.11 (antibody, V domains shown)
VH: QVQLQQSGAEVAKPGASVKMSCKASGYTFTNCWMHWVKQRPGQGLEWIGYINPTTGYSEYNQNFKDKATLTADKSSNTAYIQLSSLTSEDSAVYYCTSNYGHYDWFANWGQGTLVT
VL: DIVLTQSPPSLAVSLGQRATISCRASESVDSYGNSFMHWYQQKPGQPPKLLIYRASNLESGIPARFSGGGSRTDFTLTINPVEADDVATYYCQQSNEDPPTFGGGTKLEIK
As to B1, the Ka in assay [1] came to 5e+08 M⁻¹. Besides, the “IC50 of inhibition of PDGF BB-stimulated proliferation of rat aortic smooth muscle cells” value in the assay with rat PDGF-R β is about 0.5 µg/mL.

B2: HuM4TS.11(gamma1) (antibody, V domains shown)
VH: QVQLVQSGAEVKKPGASVKVSCKASGYTFTNCWMHWVRQAPGQGLEWIGYINPTTGYSEYNQNFKDKATITADKSTSTAYMELSSLRSEDTAVYYCTSNYGHYDWFGNWGQGTLVT
VL: DIQMTQSPSSLSASVGDRVTITCRASESVDSYGNSFMHWYQQKPGKAPKLLIYRASNLESGIPSRFSGSGSRTDFTLTISSLQPEDVATYYCQQSNEDPPTFGQGTKVEIK
Take B2: the “fold difference in competition against muM4TS.11” value in assay [2] is about 3 fold. The same molecule showed a Ka in assay [3] of 1.6e+08 M⁻¹.
